Measured values taken from patent US11466066B2, “Variants of human BMP7 protein” (ELI LILLY AND COMPANY, priority 2017, dated 2022).
Residue numbers refer to the chain shown, from its start. Names and notes keep the numbering of the source. Marks after values point to notes of the source that are not given here.

Legend:
[1] = system: rat surgical fracture model; test: Bone healing model (cortical defect); assay type: in vivo; conditions: day 35; for BMC: mean ± SEM; for % Increase From Vehicle Control: BMC
Description: The effect of wild type human mature BMP7 and variants thereof may be evaluated on bone regeneration and repair or bone healing in a rat surgical fracture model. Animals may be ovariectomized at 6 months of age and allowed to lose bone for two months before fracture surgery. Cortical defect surgery may be performed essentially as previously described (Komatsu, et al., Endocrinology, 150:1570-1579, 2009). Briefly, the procedure involves incising the skin over the lateral femoral aspect and blunt dissection of the quadriceps to expose the distal femoral diaphysis. Cortical defects may be then generated through the anterior and posterior cortexes using a Dremel tool (Robert Bosch Tool Corp, Gerlingen, Germany) equipped with a 2 mm orthopedic drill bit (Zimmer Inc, Warsaw, Ind.). The muscles may be subsequently repositioned, and the skin may be closed with tissue adhesive. Groups of animals may be treated with various amounts of wild type human mature BMP7 or variants thereof prepared in sodium citrate buffer pH 3.0 and adsorbed to Helistat type-1 collagen sponges in a volume of 50 μl. The treatments may be administered locally at the site of defect during surgery and treated for 35 days. A control group may receive the vehicle containing the same constituents in collagen sponge without the therapeutic proteins. In vivo fracture repair and bone mineral content (BMC) may be evaluated by quantitative computed tomography (QCT) using a GE Locus Ultra CT scanner (GE Healthcare, London, Ontario, Canada) as described previously (Komatsu et al., 2008).

[2] = system: monosodium iodoacetate (MIA)-induced rat model of OA pain; test: MIA rat model of osteoarthritic pain; assay type: in vivo
Procedure: The effect of human mature BMP7 protein variant F9 (SEQ ID NO: 8) may be evaluated in the monosodium iodoacetate (MIA)-induced rat model of OA pain (Bove, et. al., Osteoarthritis and Cartilage, 2003, 11: 821-830).
Briefly stated, male Lewis rats aged 7-8 weeks at the time of MIA injection may be used for this study. For induction of osteoarthritis, the rats may be anesthesized with isoflurane and given a single intra-articular injection of 0.3 mg/50 μl MIA through the infrapatellar ligament of the right knee. The left contralateral control knee may be injected with 50 μl sterile saline. The animals are treated with wild type human mature BMP7 protein at a dose of 1.0 μg/knee and human mature BMP7 protein variant F9 (SEQ ID NO: 8) at 0.175 μg and 0.7 μg/knee via intra-articular injections on day 9 and 14 post-MIA.
Pain measurements may be made by incapacitance testing on days 17, 24, 31, 38, 45, 52, 58, and 66 post-MIA injection using an incapacitance tester (Columbus Instruments International, Columbus, Ohio). Changes in hind paw weight distribution between the osteoarthritic (right) and contralateral control (left) limb may be utilized as an index of joint discomfort (measure of pain) in the osteoarthritic knee. Results may be presented as the difference in weight bearing between the contralateral control (left) and the osteoarthritic (right).

[3] = system: meniscal tear (MT) induced rat model of cartilage degeneration; test: Meniscal tear rat model of cartilage degeneration; assay type: in vivo
Description: The effect of human mature BMP7 protein variant (SEQ ID NO: 8) may be evaluated using an osteoarthritic (OA) pain in the meniscal tear (MT) induced rat model of cartilage degeneration. Male Lewis rats (approximately 25 weeks of age) may be used for such a study. Briefly described, rats may be anesthetized with 3% isoflurane prior to surgery. The right knee may be flexed and a transverse medial incision is made along the proximal antero-medial aspect of the tibia exposing the medial […] ligament. The […] ligament and the joint capsule may be incised simultaneously freeing the tibial attachments of the medial meniscus. Approximately 3 mm of the meniscus may be freed from its attachment to the margin of the tibial plateau and the meniscus may be transected to simulate a complete tear. The incision may be closed with surgical glue.
The animals may be treated with wild type human mature BMP7 at a dose of 350 ng/knee or human mature BMP7 protein variant F9 (SEQ ID NO: 8) at two doses of 49 ng or 245 ng/knee in 50 μl phosphate buffered saline (PBS), pH 7.4. The treatment may be initiated 3 weeks after MT surgery and continued for […]. Animals may be administered weekly intra-articular injections of wild type human mature BMP7 or human mature BMP7 protein variant F9 (SEQ ID NO: 8) or vehicle at various doses for 5 weeks into the operated knee. Pain measurements may be made by incapacitance testing on days 18 (baseline), 25, 31, 42 and 53 post MT surgery using an incapacitance tester (Columbus Instruments International, Columbus, Ohio). Changes in hind paw weight distribution between the osteoarthritic (right) and contralateral control (left) limb may be utilized as an index of joint discomfort (measure of pain) in the osteoarthritic knee. Results may be presented as the difference in weight bearing between the contralateral control (left) and the osteoarthritic (right).

[4] = system: rat primary articular chondrocytes (RPACs); test: Chondrogenesis assay (pellet culture); assay type: cell-based; conditions: 2 weeks in culture
Procedure: The effect of wild type human mature BMP7 and variants thereof may be evaluated for differentiation of chondrocytes in an in vitro model utilizing rat primary articular chondrocytes (RPACs). To obtain RPACs, articular cartilage may be isolated from 2-3 day old rats. The cartilage may be digested with 0.4% collagenase for 2 hours and then the resultant cells may be washed with phosphate buffered saline and subsequently cultured in media containing DMEM, 10% FBS and 1% penicillin/streptomycin in humidified air with 5% CO2 at 37° C.
To assess the chondrogenic differentiation, a pellet culture system may be used. Approximately 2×10^5 cells from passage 2-3 may be placed in 1.5 ml tubes and centrifuged at 500 g for 10 minutes. The pellets may be cultured at 37° C. with 5% CO2 in 500 μl of medium. […] The media may be replaced twice per week for 2 weeks. After 2 weeks in culture, the pellets may be harvested and macroscopic analysis was performed by stereomicroscopic procedures. The images may be analyzed and the pellet sizes may be calculated in a 2-dimensional image.

[5] = 16.5 μg on collagen sponge at defect site

B1: Human mature BMP7 protein variant F9 (SEQ ID NO: 8): homodimer wherein each monomeric subunit has SEQ ID NO: 8 (Y65G/I86L/F93V/N110G/Y128W), disulfide linked (protein)
chain: STGSKQRSQNRSKTPKNQEALRMANVAENSSSDQRQACKKHELYVSFRDLGWQDWIIAPEGYAAGYCEGECAFPLNSYMNATNHALVQTLVHVINPETVPKPCCAPTQLGAISVLYFDDSSNVILKKWRNMVVRACGCH
modifications: homodimer, disulfide linked
BMC ([1]; 2.0 μg on collagen sponge at defect site): 16.19 ± 1.09 mg
BMC [1, 5]: 18.13 ± 2.29^a mg
cortical area ([1]; 16.5 μg): significant increase
% Increase From Vehicle Control ([1]; 2.0 μg): 114%
% Increase From Vehicle Control ([1]; 16.5 μg): 128%
Difference in hind paw weight bearing ([2]; 0.175 μg/knee intra-articular day 9 and 14, Day 17 post-MIA): 23.29 ± 1.31 g
Difference in hind paw weight bearing ([2]; 0.175 μg/knee, Day 24): 24.32 ± 2.97 g
Difference in hind paw weight bearing ([2]; 0.175 μg/knee, Day 31): 21.87 ± 2.14 g
Difference in hind paw weight bearing ([2]; 0.175 μg/knee, Day 38): 20.82 ± 1.03^b g
Difference in hind paw weight bearing ([2]; 0.175 μg/knee, Day 45): 19.44 ± 0.80 g
Difference in hind paw weight bearing ([2]; 0.175 μg/knee, Day 52): 19.35 ± 0.77 ^b g
Difference in hind paw weight bearing ([2]; 0.175 μg/knee, Day 58): 17.42 ± 3.16^b g
Difference in hind paw weight bearing ([2]; 0.175 μg/knee, Day 66): 15.00 ± 1.84^b g
Difference in hind paw weight bearing ([2]; 0.7 μg/knee intra-articular day 9 and 14, Day 17 post-MIA): 36.75 ± 6.45^b g
Difference in hind paw weight bearing ([2]; 0.7 μg/knee, Day 24): 29.78 ± 8.39 g
Difference in hind paw weight bearing ([2]; 0.7 μg/knee, Day 31): 26.62 ± 6.07 g
Difference in hind paw weight bearing ([2]; 0.7 μg/knee, Day 38): 23.63 ± 0.90 g
Difference in hind paw weight bearing ([2]; 0.7 μg/knee, Day 45): 21.75 ± 4.34 g
Difference in hind paw weight bearing ([2]; 0.7 μg/knee, Day 52): 20.51 ± 3.03 g
Difference in hind paw weight bearing ([2]; 0.7 μg/knee, Day 58): 16.72 ± 0.79^b g
Difference in hind paw weight bearing ([2]; 0.7 μg/knee, Day 66): 13.06 ± 1.78^b g
Difference in hind paw weight bearing ([3]; Treatment C, 49 ng/knee weekly intra-articular, Baseline (day 18 post MT surgery)): 52.48 ± 2.11 g
Difference in hind paw weight bearing ([3]; Treatment C, 49 ng, Day 25): 49.96 ± 0.66 g
Difference in hind paw weight bearing ([3]; Treatment C, 49 ng, Day 31): 49.52 ± 1.10^b g
Difference in hind paw weight bearing ([3]; Treatment C, 49 ng, Day 42): 44.8 ± 3.04^b g
Difference in hind paw weight bearing ([3]; Treatment C, 49 ng, Day 53): 45.70 ± 2.77 g
Difference in hind paw weight bearing ([3]; Treatment D, 245 ng/knee weekly intra-articular, Baseline (day 18 post MT surgery)): 52.02 ± 2.19 g
Difference in hind paw weight bearing ([3]; Treatment D, 245 ng, Day 25): 49.77 ± 1.00 g
Difference in hind paw weight bearing ([3]; Treatment D, 245 ng, Day 31): 49.54 ± 2.77^b g
Difference in hind paw weight bearing ([3]; Treatment D, 245 ng, Day 42): 42.37 ± 1.28^b g
Difference in hind paw weight bearing ([3]; Treatment D, 245 ng, Day 53): 38.68 ± 1.68^b g
Pellet Size ([4]; Treatment 0.014 nM): 0.67 ± 0.16 mm^2
Pellet Size ([4]; Treatment 0.14 nM): 1.56 ± 0.46^a mm^2
Pellet Size ([4]; Treatment 1.4 nM): 2.61 ± 0.18^a mm^2

B2: Wild type human mature BMP7 (SEQ ID NO: 2): dimer of two glycosylated, 139 amino acid disulfide-linked proteins of about 35 kDa, SEQ ID NO: 2 (protein, listed as Homo sapiens)
chain: B1 chain with G65Y, L86I, V93F, G110N, W128Y
modifications: disulfide-linked glycosylated homodimer
BMC [1, 5]: 16.25 ± 1.60 mg
% Increase From Vehicle Control ([1]; 16.5 μg): 115%
Difference in hind paw weight bearing ([2]; 1.0 μg/knee intra-articular day 9 and 14, Day 17 post-MIA): 27.52 ± 2.81 g
Difference in hind paw weight bearing ([2]; 1.0 μg/knee, Day 24): 26.05 ± 2.81 g
Difference in hind paw weight bearing ([2]; 1.0 μg/knee, Day 31): 23.46 ± 1.23 g
Difference in hind paw weight bearing ([2]; 1.0 μg/knee, Day 38): 22.68 ± 0.61 g
Difference in hind paw weight bearing ([2]; 1.0 μg/knee, Day 45): 20.95 ± 0.87 g
Difference in hind paw weight bearing ([2]; 1.0 μg/knee, Day 52): 20.37 ± 0.71 g
Difference in hind paw weight bearing ([2]; 1.0 μg/knee, Day 58): 17.66 ± 1.79^b g
Difference in hind paw weight bearing ([2]; 1.0 μg/knee, Day 66): 17.59 ± 2.68^b g
Difference in hind paw weight bearing ([3]; Treatment B, 350 ng/knee weekly intra-articular, Baseline (day 18 post MT surgery)): 52.33 ± 2.45 g
Difference in hind paw weight bearing ([3]; Treatment B, 350 ng, Day 25): 50.76 ± 1.09 g
Difference in hind paw weight bearing ([3]; Treatment B, 350 ng, Day 31): 49.97 ± 1.10 g
Difference in hind paw weight bearing ([3]; Treatment B, 350 ng, Day 42): 46.81 ± 1.34^b g
Difference in hind paw weight bearing ([3]; Treatment B, 350 ng, Day 53): 47.77 ± 1.78 g
Pellet Size ([4]; Treatment 0.02 nM): 0.64 ± 0.15 mm^2
Pellet Size ([4]; Treatment 0.2 nM): 0.70 ± 0.03 mm^2
Pellet Size ([4]; Treatment 2 nM): 0.83 ± 0.13 mm^2
